Laboratory results: patent publication US20250171562A1 (ALK ABELL, published 2025)

Tests used:
IgE-Fc Cε3-4 [1] = target: T1, IgE-Fc Cε3-4 (human, UniProt P01854-1 209-428, limits assumed); assay: ELISA, immobilised IgE-Fc Cε3-4
T1 construct: domain: Cε3-Cε4; coated at 2 µg/mL in the ELISA; also called IgE-Fc Cε3-Cε4
Description: (§1) SdAb monomers of interest (table 1) and identified in example 2 were amplified from pNT plasmid by PCR and recloned in pET22b plasmid by SLICE cloning reaction. Thereby, a pelB signal sequence and a C-terminal his/HA tag were added to the sdAbs allowing for secretion into periplasmic space and subsequent purification and detection. SdAbs were expressed in E. coli Rosetta (DE3) cells using 2YT media. Expression was induced in early exponential phase with 0.5 mM IPTG and carried overnight at 20° C.-25° C. Purification of sdAbs from supernatant or supernatant+periplasmic extract was performed by IMAC using HisTrap excel column (Cytiva) as first step and by SEC with a Hiload 16-600 Superdex® 75 pg (Cytiva) column as second step. Size and purity of each sdAbs were evaluated on a 15% acrylamide SDS-PAGE. Then, immunoreactivity of sdAbs against immobilized IgE-Fc Cε2-4 and IgE-Fc Cε3-4 was analysed by ELISA. IgE-Fc were coated at 2 μg/mL overnight in a Nunc MaxiSorp plate (ThermoFisher). After blocking sdAbs were added at a 1:10 dilution in TBS and incubated 3h at room temperature. Detection was performed using a mouse anti-HA antibody (ThermoFisher) and an anti-mouse IgG AP conjugated (Sigma Aldrich).

IgE-Fc Cε2-4 = target: T2, IgE-Fc Cε2-4 (human, UniProt P01854-1 104-428, limits assumed); assay: ELISA, immobilised IgE-Fc
T2 construct: domain: Cε2-Cε4; coated at 2 µg/mL in the ELISA; also called IgE-Fc Cε2-Cε4
Description: as §1

recombinant human IgE = target: T3, recombinant human IgE (human, UniProt P01854-1 1-428); assay: IgE-FcεRIα displacement ELISA
T3 construct: made in-house (ALK); preloaded on immobilised FcεRIα in the displacement ELISA
In short: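 Streptavidin-coated plates carried site-specifically biotinylated recombinant human FcεRIα, loaded with recombinant human IgE at 13 ng/ml. sdAbs in a pM–μM series were added for 1 h, and displaced IgE was washed off. Percent displacement was the signal reduction versus the no-sdAb control, giving EC50 and maximal effect.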

biotinylated IgE Fc = target: T4, biotinylated IgE Fc (UniProt P01854-1 104-428, biotinylated); assay: BLI (Octet), IgE Fc on sensor, 1:1 fit
T4 construct: also called IgE Fc (made in-house ALK, Denmark)
Description: The biotinylated IgE Fc (made in-house ALK, Denmark) was immobilised on SAX (High precision streptavidin) sensors (FortéBIO) to max 1 nm. The association (240 s) and dissociation (600 s) were measured for the analytes in a serial dilution (from 10 nM to 0.37 nM). Data were subtracted to blank reference sensors exposed to the same serial analyte dilutions, aligned, and analysed in the Octet Data Analysis HT 11.1 Software (FortéBIO) using a 1:1 fitting model.

[2] = target: T5, biotinylated IgE: FcεRIα complex (UniProt P01854 104-428; P12319 26-205, biotinylated); assay: yeast display titration, flow cytometry
T5 construct: preformed complex used for yeast display titration and deep mutational scanning; also called IgE-Fc/FcεRIα; IgE-Fc Cε2-Cε4/FcεRIα complex

IgE-Fc Cε3-4 [3] = target: T1, IgE-Fc Cε3-4; assay: ELISA, immobilised IgE-Fc
Description: as §1

T4 sequence (P01854 other isoform, or with tags, fused parts or gaps): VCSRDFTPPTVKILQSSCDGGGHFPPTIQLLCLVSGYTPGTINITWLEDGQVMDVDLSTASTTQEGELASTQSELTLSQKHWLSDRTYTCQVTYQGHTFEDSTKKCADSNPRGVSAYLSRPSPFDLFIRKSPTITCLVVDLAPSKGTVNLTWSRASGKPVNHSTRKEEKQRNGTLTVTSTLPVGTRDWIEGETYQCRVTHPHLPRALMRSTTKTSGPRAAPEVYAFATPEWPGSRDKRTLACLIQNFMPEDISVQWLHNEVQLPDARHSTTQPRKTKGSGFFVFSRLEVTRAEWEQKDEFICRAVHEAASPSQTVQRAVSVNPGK
T3 sequence (P01854 other isoform, or with tags, fused parts or gaps): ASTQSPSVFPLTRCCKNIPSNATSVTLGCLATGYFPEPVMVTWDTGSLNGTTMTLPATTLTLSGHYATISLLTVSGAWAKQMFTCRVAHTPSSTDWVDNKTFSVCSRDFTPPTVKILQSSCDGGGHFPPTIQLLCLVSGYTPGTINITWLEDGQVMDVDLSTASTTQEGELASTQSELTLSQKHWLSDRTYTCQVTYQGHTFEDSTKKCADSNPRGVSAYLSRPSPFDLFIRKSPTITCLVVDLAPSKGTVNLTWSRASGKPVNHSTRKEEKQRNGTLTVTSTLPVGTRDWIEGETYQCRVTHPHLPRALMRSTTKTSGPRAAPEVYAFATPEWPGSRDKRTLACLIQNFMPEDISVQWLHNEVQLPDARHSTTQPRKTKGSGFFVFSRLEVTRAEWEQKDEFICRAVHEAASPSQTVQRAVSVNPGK
T1 sequence (P01854 other isoform, or with tags, fused parts or gaps limits assumed): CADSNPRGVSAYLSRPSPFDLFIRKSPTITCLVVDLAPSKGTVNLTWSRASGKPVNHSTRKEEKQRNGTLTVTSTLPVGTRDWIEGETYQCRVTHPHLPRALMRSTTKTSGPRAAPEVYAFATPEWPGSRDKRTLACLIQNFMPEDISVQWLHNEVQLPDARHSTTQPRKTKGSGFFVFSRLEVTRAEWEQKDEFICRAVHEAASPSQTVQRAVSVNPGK
T5 sequence (P12319 26-205, chain 2 of 2): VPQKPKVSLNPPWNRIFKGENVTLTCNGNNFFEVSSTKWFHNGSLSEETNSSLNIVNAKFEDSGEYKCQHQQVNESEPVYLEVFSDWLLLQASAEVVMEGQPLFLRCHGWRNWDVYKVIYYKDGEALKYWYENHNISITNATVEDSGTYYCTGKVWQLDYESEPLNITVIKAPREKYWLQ

B1: sdAb E4 (VHH)
VHH: DVQLQESGGGLVQPGGSLRLSCAASGFRFSNYAMRWYRQAPGKEREFVARISSTGFITRYTASVRDRFTISRDNDKNMMYLQLNKLTPQDTAHYYCNAESTDYWGQGTQVTVS
**Q.** Does B1 bind (IgE-Fc Cε3-4 [1])?
**A.** Result: no binding

**Q.** Does B1 bind (IgE-Fc Cε2-4)?
**A.** Result: binds

B2: sdAb A1 (VHH)
VHH: EVQLLESGGGLVQPGGSLRLSCAASGFTFGNYDMAWVRQAPGKRPEWVSSIDTGGDITHYADSVKGRFTISRDNAKNTLYLQMNSLRPEDTAVYWCATDEEYALGPNEFDYYGQGTLVTVSS
notes: also called sdAb 026; IGE026
**Q.** B2 was tested. Which EC50 (recombinant human IgE) did it give?
**A.** Its EC50 is 800 nM.

**Q.** What about the Max effect (recombinant human IgE) of the same binder?
**A.** Its Max effect is > 95%.

**Q.** And the Kd (biotinylated IgE Fc)?
**A.** Its Kd is 0.19 nM.

**Q.** What about the koff (biotinylated IgE Fc) of the same binder?
**A.** The koff was 0.0002 s⁻¹.

**Q.** What about the kon (biotinylated IgE Fc) of the same binder?
**A.** The kon was 1e+06 M⁻¹ s⁻¹.

**Q.** And the “apparent Kd (pooled screen)” value [2]?
**A.** Its value is 0.345 nM.

B3: sdAb G1 (VHH)
VHH: DVQLQESGGGLVQAGGSLRLSCAASGFIVSDNVMSWYRQAPGKQRDMVATIMLNGDTAHADSVKGRFTISRDHAKNTVYLQMNSLKPEDTAVYYCNARDSMLEPGRGAWGQGTLVTVS
**Q.** What does the source list for B3?
**A.** binding result (IgE-Fc Cε2-4): binds; binding result (IgE-Fc Cε3-4 [3]): binds
